Data reported in the supplement of paper PMC10065799, “High-throughput profiling of sequence recognition by tyrosine kinases and SH2 domains using bacterial peptide display” (eLife, 2023).

Tests used:
AncSZ = test: phosphorylation enrichment, bacterial display (enrichment ratio); higher = better substrate or ligand; peptides without Tyr show the background
EPHB1 = EPHB1 (UniProt P54762); test: as above
EPHB2 = EPHB2 (UniProt P29323); test: as above
FGFR1 = FGFR1 (UniProt P11362); test: as above
FGFR3 = FGFR3 (UniProt P22607); test: as above
Fer (mouse) = test: as above
Fes = Fes (UniProt P07332); test: as above
Fyn = Fyn (UniProt P06241); test: as above
Hck = Hck (UniProt P08631); test: as above
Jak2 = Jak2 (UniProt O60674); test: as above
MERTK = MERTK (UniProt Q12866); test: as above
c-Abl (mouse) = test: as above
c-Src = test: as above
Grb2 SH2 = Grb2 SH2 (UniProt P62993); test: SH2 binding enrichment of the phosphorylated peptide, bacterial display (enrichment ratio); higher = better substrate or ligand; peptides without Tyr show the background
SHP2-C SH2 = test: as above
c-Src SH2 = test: as above
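Throughout, for SH2 binding enrichment of the phosphorylated peptide, bacterial display: peptide library displayed on the E. coli surface as eCPX fusions, selected cells deep-sequenced, score is each peptide's frequency after selection divided by its frequency in the input.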
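Throughout, for phosphorylation enrichment, bacterial display: 11-residue human phosphosite peptides and single-mutation variants displayed on the E. coli surface, counted by deep sequencing, each peptide's frequency after selection divided by its frequency in the unselected input library; frequency after pTyr selection over input frequency; kinase dosed for 20-30% of maximal phosphorylation in three min.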

Chain of Fes (P07332 whole entry, looked up): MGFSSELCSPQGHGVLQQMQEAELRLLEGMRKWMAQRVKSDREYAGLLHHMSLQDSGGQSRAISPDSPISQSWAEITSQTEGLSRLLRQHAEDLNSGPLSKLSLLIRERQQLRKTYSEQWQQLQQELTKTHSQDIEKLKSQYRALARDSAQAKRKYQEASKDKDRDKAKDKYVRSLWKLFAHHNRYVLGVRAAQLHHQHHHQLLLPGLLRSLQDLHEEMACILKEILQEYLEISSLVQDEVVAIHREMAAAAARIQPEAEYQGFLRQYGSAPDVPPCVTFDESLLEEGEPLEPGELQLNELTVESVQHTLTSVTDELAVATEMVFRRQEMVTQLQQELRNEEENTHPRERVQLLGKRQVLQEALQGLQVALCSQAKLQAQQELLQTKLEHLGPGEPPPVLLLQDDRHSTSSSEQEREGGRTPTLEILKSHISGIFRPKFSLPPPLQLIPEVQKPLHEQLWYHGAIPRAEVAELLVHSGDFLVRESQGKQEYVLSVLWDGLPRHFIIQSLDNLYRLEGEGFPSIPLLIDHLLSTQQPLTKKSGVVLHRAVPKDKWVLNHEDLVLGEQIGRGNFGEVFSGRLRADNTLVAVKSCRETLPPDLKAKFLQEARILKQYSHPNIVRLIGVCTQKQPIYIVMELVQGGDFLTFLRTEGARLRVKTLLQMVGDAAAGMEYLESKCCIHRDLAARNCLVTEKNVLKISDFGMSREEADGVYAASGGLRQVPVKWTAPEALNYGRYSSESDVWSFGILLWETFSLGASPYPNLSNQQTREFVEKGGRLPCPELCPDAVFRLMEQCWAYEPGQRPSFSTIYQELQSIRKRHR
Chain of EPHB2 (P29323 whole entry, looked up): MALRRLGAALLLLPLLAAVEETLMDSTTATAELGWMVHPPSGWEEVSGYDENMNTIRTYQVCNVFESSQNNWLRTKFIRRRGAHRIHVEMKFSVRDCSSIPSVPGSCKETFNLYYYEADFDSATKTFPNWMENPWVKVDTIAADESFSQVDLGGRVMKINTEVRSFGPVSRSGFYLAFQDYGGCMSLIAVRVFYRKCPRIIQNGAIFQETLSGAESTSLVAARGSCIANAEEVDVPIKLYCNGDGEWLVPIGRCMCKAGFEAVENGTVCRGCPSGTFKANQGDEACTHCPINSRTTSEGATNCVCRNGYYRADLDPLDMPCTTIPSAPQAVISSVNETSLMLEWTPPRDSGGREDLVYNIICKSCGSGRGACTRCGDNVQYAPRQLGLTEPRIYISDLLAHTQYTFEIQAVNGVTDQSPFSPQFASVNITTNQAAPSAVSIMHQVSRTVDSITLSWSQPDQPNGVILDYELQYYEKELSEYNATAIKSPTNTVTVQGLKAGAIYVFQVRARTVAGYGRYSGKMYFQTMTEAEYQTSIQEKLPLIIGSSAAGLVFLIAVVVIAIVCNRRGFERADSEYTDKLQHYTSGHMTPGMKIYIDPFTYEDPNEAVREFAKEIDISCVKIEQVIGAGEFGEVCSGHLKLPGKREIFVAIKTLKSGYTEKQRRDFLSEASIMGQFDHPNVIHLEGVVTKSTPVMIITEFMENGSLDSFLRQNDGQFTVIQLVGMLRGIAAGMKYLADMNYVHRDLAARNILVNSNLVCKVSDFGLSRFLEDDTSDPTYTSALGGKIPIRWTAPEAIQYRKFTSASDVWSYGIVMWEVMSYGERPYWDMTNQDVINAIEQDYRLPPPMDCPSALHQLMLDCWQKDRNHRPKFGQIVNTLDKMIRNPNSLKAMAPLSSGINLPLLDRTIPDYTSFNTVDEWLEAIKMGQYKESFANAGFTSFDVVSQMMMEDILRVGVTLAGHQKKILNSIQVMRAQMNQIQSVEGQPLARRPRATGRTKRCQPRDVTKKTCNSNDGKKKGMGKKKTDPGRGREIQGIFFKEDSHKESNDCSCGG
Chain of FGFR3 (P22607 whole entry, looked up): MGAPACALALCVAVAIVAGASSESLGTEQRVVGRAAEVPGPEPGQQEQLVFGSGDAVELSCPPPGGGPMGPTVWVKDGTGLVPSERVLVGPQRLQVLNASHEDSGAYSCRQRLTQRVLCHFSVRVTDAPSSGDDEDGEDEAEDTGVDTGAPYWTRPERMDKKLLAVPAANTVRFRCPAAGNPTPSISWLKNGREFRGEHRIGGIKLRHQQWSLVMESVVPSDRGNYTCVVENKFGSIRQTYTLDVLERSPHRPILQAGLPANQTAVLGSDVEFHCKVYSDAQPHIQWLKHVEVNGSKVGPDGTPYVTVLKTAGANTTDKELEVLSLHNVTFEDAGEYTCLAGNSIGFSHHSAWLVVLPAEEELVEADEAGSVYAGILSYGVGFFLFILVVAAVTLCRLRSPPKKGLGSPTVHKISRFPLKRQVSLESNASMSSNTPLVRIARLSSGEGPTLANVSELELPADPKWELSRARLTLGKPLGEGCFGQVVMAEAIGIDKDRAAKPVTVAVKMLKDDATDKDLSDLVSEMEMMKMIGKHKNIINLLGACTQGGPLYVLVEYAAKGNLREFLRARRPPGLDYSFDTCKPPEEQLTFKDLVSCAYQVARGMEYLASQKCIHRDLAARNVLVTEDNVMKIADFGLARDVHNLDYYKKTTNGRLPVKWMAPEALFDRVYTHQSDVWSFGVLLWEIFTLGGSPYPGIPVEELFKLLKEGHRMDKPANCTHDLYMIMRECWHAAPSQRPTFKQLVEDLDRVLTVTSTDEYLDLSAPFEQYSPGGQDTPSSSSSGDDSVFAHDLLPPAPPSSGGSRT
Chain of EPHB1 (P54762 whole entry, looked up): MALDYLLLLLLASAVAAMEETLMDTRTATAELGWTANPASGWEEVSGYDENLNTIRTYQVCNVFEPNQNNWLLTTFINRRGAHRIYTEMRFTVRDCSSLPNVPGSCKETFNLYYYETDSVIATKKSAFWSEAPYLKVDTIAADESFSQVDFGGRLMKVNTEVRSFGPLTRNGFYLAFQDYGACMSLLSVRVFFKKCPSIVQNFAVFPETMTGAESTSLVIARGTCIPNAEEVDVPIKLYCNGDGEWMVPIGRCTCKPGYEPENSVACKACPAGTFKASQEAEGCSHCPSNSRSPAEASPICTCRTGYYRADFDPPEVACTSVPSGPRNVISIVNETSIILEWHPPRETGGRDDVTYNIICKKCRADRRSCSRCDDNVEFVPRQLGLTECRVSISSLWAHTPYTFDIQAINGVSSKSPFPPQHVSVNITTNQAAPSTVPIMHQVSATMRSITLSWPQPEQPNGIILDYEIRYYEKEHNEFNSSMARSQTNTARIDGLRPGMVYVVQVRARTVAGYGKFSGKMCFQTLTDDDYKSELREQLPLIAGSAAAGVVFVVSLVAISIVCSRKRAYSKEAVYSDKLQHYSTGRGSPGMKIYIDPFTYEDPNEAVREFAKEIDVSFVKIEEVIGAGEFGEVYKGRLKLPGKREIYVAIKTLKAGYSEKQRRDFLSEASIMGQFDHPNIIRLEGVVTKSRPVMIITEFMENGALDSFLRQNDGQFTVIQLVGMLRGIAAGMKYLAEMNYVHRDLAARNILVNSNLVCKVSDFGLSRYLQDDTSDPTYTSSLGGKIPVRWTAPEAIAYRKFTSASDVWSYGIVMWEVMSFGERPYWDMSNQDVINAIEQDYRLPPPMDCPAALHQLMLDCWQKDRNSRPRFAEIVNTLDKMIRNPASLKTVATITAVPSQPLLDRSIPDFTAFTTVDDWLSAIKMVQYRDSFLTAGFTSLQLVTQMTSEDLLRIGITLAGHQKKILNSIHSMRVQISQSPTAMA
Chain of MERTK (Q12866 whole entry, looked up): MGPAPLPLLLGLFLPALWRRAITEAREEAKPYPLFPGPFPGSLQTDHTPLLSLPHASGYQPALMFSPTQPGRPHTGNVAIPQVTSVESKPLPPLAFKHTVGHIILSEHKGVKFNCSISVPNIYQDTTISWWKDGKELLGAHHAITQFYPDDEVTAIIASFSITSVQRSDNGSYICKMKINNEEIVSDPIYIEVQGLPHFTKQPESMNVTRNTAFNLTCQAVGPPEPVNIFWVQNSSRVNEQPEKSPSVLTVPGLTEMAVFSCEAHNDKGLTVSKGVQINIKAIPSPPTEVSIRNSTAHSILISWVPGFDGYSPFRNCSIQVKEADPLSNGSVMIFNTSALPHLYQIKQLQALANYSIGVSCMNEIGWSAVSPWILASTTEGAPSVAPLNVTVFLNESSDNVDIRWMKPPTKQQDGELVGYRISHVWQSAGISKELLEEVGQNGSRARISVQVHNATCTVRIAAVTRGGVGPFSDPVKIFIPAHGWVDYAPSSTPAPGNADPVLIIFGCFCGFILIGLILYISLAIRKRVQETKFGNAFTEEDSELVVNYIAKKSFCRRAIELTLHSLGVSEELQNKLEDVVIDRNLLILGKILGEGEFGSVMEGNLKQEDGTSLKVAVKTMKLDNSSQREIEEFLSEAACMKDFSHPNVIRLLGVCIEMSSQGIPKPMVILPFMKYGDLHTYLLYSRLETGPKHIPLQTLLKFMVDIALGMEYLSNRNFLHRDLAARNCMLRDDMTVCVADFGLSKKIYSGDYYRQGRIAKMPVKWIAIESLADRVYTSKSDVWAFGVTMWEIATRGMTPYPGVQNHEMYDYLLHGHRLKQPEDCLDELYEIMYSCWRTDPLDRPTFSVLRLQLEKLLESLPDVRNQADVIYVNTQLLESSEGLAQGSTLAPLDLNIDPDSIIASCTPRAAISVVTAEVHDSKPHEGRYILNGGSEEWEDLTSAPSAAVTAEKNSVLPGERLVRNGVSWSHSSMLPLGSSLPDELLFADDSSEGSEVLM

SH2 binding enrichment (Grb2 SH2)	SH2 binding enrichment (SHP2-C SH2)	SH2 binding enrichment (c-Src SH2)	Sequence	phosphorylation enrichment (AncSZ)	phosphorylation enrichment (EPHB1)	phosphorylation enrichment (EPHB2)	phosphorylation enrichment (FGFR1)	phosphorylation enrichment (FGFR3)	phosphorylation enrichment (Fer (mouse))	phosphorylation enrichment (Fes)	phosphorylation enrichment (Fyn)	phosphorylation enrichment (Hck)	phosphorylation enrichment (Jak2)	phosphorylation enrichment (MERTK)	phosphorylation enrichment (c-Abl (mouse))	phosphorylation enrichment (c-Src)
0.657	0.715	0.415	GKMSQYLESMQ [CYB5R3_Y130]	0.646	0.336	0.454	0.444	0.426	0.373	0.583	0.457	0.494	0.539	0.435	0.548	0.517
0.602	0.546	0.535	VPLATYMRIFK [RPL21_Y30_YF]	0.733	0.406	0.425	0.408	0.501	0.406	0.881	0.462	0.537	0.614	0.35	0.477	0.486
1.05	1.09	1.31	SYVVRYNQPRV [GRIN2D_Y736_M733V]	0.843	0.478	0.478	0.452	0.588	0.419	0.891	0.433	0.475	0.725	0.375	0.717	0.405
0.962	0.543	0.542	FEKNVYVDKNL [PTCHD3_Y688]	0.615	0.36	0.406	0.419	0.461	0.437	0.894	0.405	0.505	0.732	0.411	0.616	0.446
0.97	0.489	0.465	NTEGGYRCICA [CRELD1_Y328]	0.976	0.496	0.644	0.668	0.636	0.498	1.02	0.511	0.538	0.869	0.484	0.947	0.465
0.952	0.504	0.589	KASIMYPSNNC [CXCL11_Y52]	0.673	0.528	0.472	0.484	0.49	0.359	0.786	0.446	0.459	0.604	0.368	0.518	0.394
0.739	0.723	0.76	YETSHYPASPD [CTNND2_Y1217]	0.858	0.382	0.512	0.454	0.626	0.484	0.771	0.434	0.421	0.7	0.42	0.528	0.489
0.635	0.917	0.403	PRAGVYPEKDQ [DNM2_Y626_L621P]	1.16	0.734	0.622	0.642	0.759	0.658	1.26	0.658	0.662	1.08	0.511	0.865	0.682
0.822	0.286	0.527	RRLEPYGENFN [APOA4_Y310_V307L]	1.04	0.398	0.317	0.266	0.493	0.315	0.732	0.281	0.25	0.681	0.385	0.371	0.463
0.855	0.701	0.549	AAILGYCHGEA [XPC_Y669_R671H]	0.975	0.581	0.75	0.523	0.733	0.474	1.03	0.535	0.53	0.725	0.827	0.7	0.373
1.23	1.37	1.03	FLAVGYHKTHI [IDS_Y225_P228T]	0.784	0.548	0.484	0.429	0.649	0.447	0.946	0.477	0.469	0.971	0.441	0.638	0.4
0.743	0.768	0.941	WFPSTYVEEDE [VAV3_Y842]	1.43	0.789	0.656	0.636	0.81	0.638	1.5	0.51	0.741	1.42	0.454	0.875	0.549
1.49	1.35	1.22	KWHREYNFKYV [RICTOR_Y835_S837F]	1.04	0.454	0.392	0.358	0.564	0.357	0.786	0.394	0.397	0.693	0.376	0.528	0.38
0.985	0.672	0.443	LNYNEYFRDLN [HPRT1_Y198_D194N]	1.82	1.4	1.12	1.29	1.38	0.878	1.6	0.996	0.879	1.57	0.559	1.01	0.518
0.997	0.691	0.51	TCFDKYTGSTY [FN1_Y101_N104S]	0.843	0.442	0.556	0.556	0.534	0.418	0.737	0.469	0.652	0.747	0.399	0.579	0.5
1.14	1.11	1.19	LHRHAYPEQRQ [DPPA2_Y127]	0.619	0.434	0.594	0.505	0.577	0.532	0.967	0.502	0.704	0.53	0.487	0.789	0.449
0.651	0.592	1.22	DGYTDYAEFAK [MCFD2_Y138_I136T]	1.03	0.829	0.706	0.754	0.699	0.4	0.844	0.96	0.74	0.765	0.463	0.734	0.942

SH2 binding enrichment (Grb2 SH2)	SH2 binding enrichment (SHP2-C SH2)	SH2 binding enrichment (c-Src SH2)	Sequence	phosphorylation enrichment (AncSZ)	phosphorylation enrichment (EPHB1)	phosphorylation enrichment (EPHB2)	phosphorylation enrichment (FGFR1)	phosphorylation enrichment (FGFR3)	phosphorylation enrichment (Fer (mouse))	phosphorylation enrichment (Fes)	phosphorylation enrichment (Fyn)	phosphorylation enrichment (Hck)	phosphorylation enrichment (Jak2)	phosphorylation enrichment (MERTK)	phosphorylation enrichment (c-Abl (mouse))	phosphorylation enrichment (c-Src)
0.918	0.804	1.34	MSRDVYSIDYY [NTRK2_Y702_T704I]	1.54	1.47	1.73	4.29	3.12	1.22	0.9	8.72	4	0.825	7.16	0.538	6.79
0.836	1.04	0.402	NIEPVYLNMLL [ATR_Y317]	1.58	6.94	5.01	8.65	5.81	10.5	1.48	6.88	5.48	1.36	3.46	4.49	6.42
0.961	0.649	0.399	LIQRNYKLAAQ [ALPK2_Y1975]	1.19	1.13	0.604	0.937	0.962	0.576	1.21	0.571	0.833	0.44	0.72	0.773	0.49
1.14	0.94	0.731	ILTLKYPIELG [ACTA1_Y71_H75L]	0.886	0.578	0.572	0.47	0.601	0.457	0.986	0.435	0.518	0.74	0.352	0.476	0.352
0.929	1.11	2.62	AEDKPYAELWT [MPI_Y46_M51T]	1.17	0.689	0.737	1.01	1	7.1	1.25	1.3	1.13	0.958	0.994	0.772	2.54
0.888	0.757	0.58	VSVVDYVEPSP [TXNRD2_Y70_A66S]	1.21	0.595	0.547	0.804	0.629	0.521	1.05	0.494	0.565	0.725	0.485	0.576	0.489
1.12	1.09	0.801	LIYTNYEVGKD [GSTP1_Y112_A114V]	2.37	13.4	16.8	7.05	5.54	17.7	1.96	11.9	8.89	1.33	11.3	14.1	8.72
1.02	0.936	0.625	AKIDGYITSFR	0.795	0.427	0.411	0.513	0.573	0.468	0.957	0.439	0.381	0.535	0.468	0.573	0.407
0.834	0.555	0.469	NGEDLYAGSTD [XRCC1_Y515_P514L]	1.17	0.517	0.541	0.489	0.613	0.52	1.05	0.66	0.886	1.02	0.446	0.743	0.807
1.29	0.558	0.368	LSQAKYQIRYR [CRLF1_Y272_F268S]	0.617	0.506	0.764	0.638	0.603	0.467	0.768	0.776	0.667	0.711	0.479	0.592	0.387
0.815	0.473	0.498	SSYPDYLAAVD [GLB1_Y154_D151Y]	1.36	0.518	0.554	0.647	0.746	0.495	1.05	0.495	0.515	0.994	0.415	0.653	0.451
0.59	0.51	0.35	DLFRLYVCVKE [ARID1B_Y1091]	1.17	0.697	0.67	0.389	0.88	0.548	1.52	0.396	0.475	1.35	0.364	0.875	0.431
1.2	1.47	0.892	FQQLFYLLQTN [IQGAP2_Y890_YF]	1.51	0.884	0.796	0.514	1.26	0.561	1.5	0.608	0.688	1.34	0.867	0.897	0.779
0.716	0.567	0.37	ANNEFYFRVCA	1.28	0.563	0.548	0.445	0.824	0.536	1.43	0.483	0.516	1.39	0.44	0.923	0.412
0.958	3.78	6.59	SSKILYHIIKG [CDH17_Y489]	0.565	0.395	0.529	1.22	0.923	0.383	0.798	0.45	0.655	0.63	1.12	0.438	0.453
1.23	1.05	0.982	GIVKAYYVHAR [AIPL1_Y267_R270H]	0.732	0.498	0.51	0.482	0.514	0.452	0.736	0.418	0.412	0.866	0.436	0.569	0.538
